What was measured:
[1] = target: PDK1 1-556 (UniProt O15530); assay: AlphaScreen GST-PRK2 / His-PDK1; conditions: reference: wild type; sites T958
[2] = target: PDK1 catalytic domain, 50-359 (UniProt O15530); assay: AlphaScreen GST-PRK2 / His-PDK1; conditions: reference: wild type; sites T958

Row | binding against the reference [1] | binding against the reference [2] | Substance
1 | stronger | stronger | PRK2 (PKN2) 1-984 (from UniProt Q16513) T958A
2 | – | stronger | PRK2 (PKN2) catalytic domain, 643-984 (from UniProt Q16513) T958A

Reference: PMC11357854
